A short description of the data set: soluble on expression in E. coli; label from the status in PepcDB or PDB records.
Take “MIQRNSTLAVLRESFVAGSDENLSPIMHHLWKMEGGAIYFCRSGWAHVTIDLKEYEIVKNTQVVLLPGSIIRINGSSSDFTASFFGFPKDMFREACLRLEPTFFRFMKEKPCYVLPDKDTGAINGLIQATTAIYNDRENRFRNQIAKNHLQSFMLDIYDKCYRYFDKQEIEGGSRQDEIFKKFVALVHENCISQREVNFYANELCISTKYLTGICRSVTGDSAKKIIDDFAILEIKVLLQSTELTMQDIADRLGFPDQSYLGRYFKRHEGMSPREYQNRYVI”: the “soluble on expression in E. coli” value is recorded as “not soluble”.
“MSLTTGAAVAFVDTLHDAAVRDLGWLLASPSMLTAVPGAPLARPWPDATGQAAVEAWLAALDAQPGPLHRALDGFRPTRLGRYAECLLEYFLTHGPSLRLVAANLPLRSNGRTLGEVDFLVDTPDGRRLHWEMAVKCYLCAPVRDGASLADFVGPNLVDRFDRKRSRLLDHQLRMGEHDGFARLGYGAPADAQMFIKGWLFHPYGAPVPPVSVEIAPDHPRGFWLTHGQWPAWAAAQRDGAAWSVLPRLAWLAPRRAVAGAGVEPEPLASALELPAVLATRQTPDMIAIHEKGGDGTWRETARGFVVPDDWPARAQAFAAQDHEGHHHHHH”: the “soluble on expression in E. coli” value is listed as “soluble”.
The same measure for “MTYIAPEESAFGVGFFERLEANAKPMSLTRGPDAWDVLESIKRNVSNILNTRIGGAQSAPHLGLVDFNDATLETLDLSVRIKLAIQQCLERYEPRLTRVLVRADQDSFNPLTLRFHITATINSEALHEKVQFSLLLDQSRKYRVF”: “not soluble”; for “AHHHHHHGSVSKPHGGKLIRRIAAPRTRERILSEQHEYPRVQIDHGRAIDLENIAHGVYSPLKGFLTREDFESVLDYMRLSDDTPWTIPIVLDVGEPTFEGGDAILLYYENPPIARMHVEDIYTYDKKEFAVKVFKTDDPNHLGVARVYSMGKYLVGGGIELLNELPNPFAKYTLRPVETRILFKERGWKTIVAFQTRNVPHLGHEYVQKAALTFVDGLFINPVLGRKKKGDYKDEVIIKAYYLIMKYCSNTTHHAIMRKTSTSSQT”: “not soluble”.
With “MSINVDEFQCYRIPNVYVQWYDLEPTIHWLTGGNSNSRQIQEMDQKKKKIRSTSAYALFFRERQSLEKRAAPYATFGQISQKIARQWDSLTEEEKKAYKQRCEKNRKTSIANAVEEKARQLLTASKFQ”, the “soluble on expression in E. coli” value is given as “not soluble”.
Take “MSTINYDLSRIKALAFDVDGVLSSTTVPLHPSGEPMRTVNIKDGYAIQLAVKKGLHIAIITGGRTEAVRIRFAALGVKDLYMGSAVKIHDYRNFRDKYGLSDDEILYMGDDVPDIEVMRECGLPCCPKDAVPEVKSVAKYISYADGGRGCGRDVVEQVLKAHGKWMAEDAFGW”: the “soluble on expression in E. coli” value is “not soluble”.
Regarding “TLTIDDGNIEIVGTGVKGKLPTVWLQYGQVNLKASGGNGKYTWRSANPAIASVDASSGQVTLKEKGTTTISVISSDNQTATYTIATPNSLIVPNMSKRVTYNDAVNTCKNFGGKLPSSQNELENVFKAWGAANKYEYYKSSQTIISWVQQTAQDAKSGVASTYDLVKQNPLNNIKASESNAYATCVK”, the “soluble on expression in E. coli” value is reported as “soluble”.
The same measure for “MELFLAGRRVLVTGAGKGIGRGTVQALHATGARVVAVSRTQADLDSLVRECPGIEPVCVDLGDWEATERALGSVGPVDLLVNNAAVALLQPFLEVTKEAFDRSFEVNLRAVIQVSQIVARGLIARGVPGAIVNVSSQCSQRAVTNHSVYCSTKGALDMLTKVMALELGPHKIRVNAVNPTVVMTSMGQATWSDPHKAKTMLNRIPLGKFAEVEHVVNAILFLLSDRSGMTTGSTLPVEGGFWAC”: “soluble”; for “MGVITDDVTIAQQALTHYDVSDNASLRLLNLSENATYLVEDGEHQSILRVHRQDYHQPHEIESELDWLAALRTDSDVTVPTVVPARDGRRVVTVDPADSDAVPRHVVHFEMVGGAEPDEESLTLDDFQTLGRITASLHEHSQRWTRPAGFGRFSWDWEHCLGDTPRWGRWQDAEGVGASETALLTRAQDLLHRKLEEYGSGPDRYGLIHADLRLANLLVDSSTPQRTITVIDFDDCGFGWYFYDFGTAVSFIEHDPRLGEWQESWVAGYRSRRELPAADEAMLPSFVFLRRLLLLAWMGSHTHSRESATKAISYAAGSCALAERYLSSDGLRLT”: “not soluble”; for “MTRQGWLVPCLSHGKDDQLQDELSELSKAYRKKFQTDLHTKSGDIIDPSGEFLYVYLDEENYRICRQSMVLVSNAPDGLIATTLEPYSDSYTFRQVREQLQAFSGDGGRINYSRNEHSSSYFLTIQASNEFKHVGAVRNTFGQSKDIWKRRMPDASQPLDYHLIAVGCSAFLPEAALDDVESDGAVLEHHHHHH”: “not soluble”.
Under “MIIGSRRARSDKYVKIAHLMQCTQPWFNHFLPEPESPQASTYKMLKPVSWLPRPVKSVSFYPSRRTAVARNGHNLRLQWRGPLPELHWHSRSLQHTQH” stands “not soluble”.
The same measure for “GPGSMEGLSPPETDECAKPHNRECNTTPSSGSPPSNIPPQQLLCSVRSGMHSNLTESAWESRESNSGYAHEKQSGVDGDACTRYYQRLHRFYEQYNPKNLSRISEYLAAYKGKEEQLMAILVGKYGPEPVDRGPQTNLSCCSGDDSVMHFSGKRYRIPTVVTPQQGNTDCETPYWGNSPLIGERDILGLLSSLETANVELQKCYIGPSAQHPTSSWNGMTYVTRAEIFTPNEETFLGHKWTFTLGSKKVLVHEGSAYHRATFFCTDECQYRGRHERWRLCVYTSSVDSLYLVRVIWDPVVYLEPLPLDRSALSQHSSSEAMPIAGSSVSYQTSCGKGNTEPEQPLISATMINIMTMLENMDKKISGRFDALEARFSFLESKLLGAVDDKQRTEDR”: “not soluble”; for “MGSDKIHHHHHHMFTLYERKNRQKSNVNIFVMNYVTNLTKENLAGERIGVFFGTFAPLHVGHQAEIYKAAALNDGVLVVTSGYTGDRGEQIGLPLRKRFRYLRQAFADEWQIKVDYLNEDGIPKMPDGWDVWLDKLLGIIKRNIVNKNAKITFYTGEPDYKKEIEKRLGDNPQFRVSLMDRTILNISATKIRKEPLKYWDYINRVFRRHFVQKVVVMGSSNSGKSTLIRRLARSANSPFSDDFAAIYQEESNVADSEMDIKDYSNIIQGQYQANSLEINSPANNGLAIFNGDAISLQAYSNLLLNQDERLQLKHLYNTIISAEEFDLILVIPPFSDPRRKVIRFTGAAIDPVAYYQELIRLIDFYGFSDKMVVLNAKNQTDDPAGYYARYLQALDAIEKYTSFDIEHHR”: “not soluble”.
As for “GSPGISGGGGGSHIEGYECQPIFLNVLEAIEPGVVCAGHDNNQPDSFAALLSSLNELGERQLVHVVKWAKALPGFRNLHVDDQMAVIQYSWMGLMVFAMGWRSFTNVNSRMLYFAPDLVFNEYRMHKSRMYSQCVRMRHLSQEFGWLQITPQEFLCMKALLLFSIIPVDGLKNQKFFDELRMNYIKELDRIIACKRKNPTSCSRRFYQLTKLLDSVQPIARELHQFTFDLLIKSHMVSVDFPEMMAEIISVQVPKILSGKVKPIYFHTQ”, the “soluble on expression in E. coli” value was “soluble”.
The same measure for “MGSDKIHHHHHHMILFGTGGIRGVMRKGEFDEETVKRASLSTALWLKEKGQKSVVIAYDTRKNSKEFAELAGRVFAGEGIEAYVFPEPTPTPVLSFAVRYMKTGGGVVITASHNPPEYNGYKVYTWDGVQAIPEYTNEITEIYKKVDLSHVKEGEIKFVPPEVKESYIKAVLEIVSNLPMKTDLDIAYSPLHGTGANYVPEVLKRLGFKVRLVEEQMKPDPNFSTVPTPNPEEDEALVLLNKKGATLGLATDPDCDRVGVVFKGRRLTGNQVGVLLTDFLLDHVKVENPLVIKTIVTTDMVRPICEEKGAFLEETPTGFKFIGHLIEEHTKKGDRNFVFGFEESCGYLAGNHARDKDGVVGSVLSAVAFSNYDPYEKLEELYQKYGYYMEKLINFKFEDVDRAVEIYRSLKNYDGIIDYSKGYGNVIPNETIAFVFEKSRIFVRPSGTEPKLKVYIHVRGDTREEAEELMKESESKIKEILKL”: “not soluble”.

For the origin of these results see the DeepSol protein solubility set.
